Residue numbers refer to the chain shown, from its start.
B1: 6E7 variant V8 (antibody, V domains shown)
VH: EVQLVQSGAEVKKPGESLKISCKGSGYSFTSYWIAWVRQMPGKGLEWMGIIYPGDSDTKYSPSFQGQVTISADKSISTAYLQWSSLKASDTAMYFCARQRTFYYDSSDYFDYWGQGTLVTVSS
VL: DIQMTQSPSSVSASVGDRVTITCRASQGISSWLAWYQQKPGKAPKLLIYAASSLQNGVPSRFSGSGSGTDFTLTISSLQPEDFATYFCQQADSFPRTFGQGTKLEIK
B2: 6E7 variant V9 (antibody, V domains shown)
VH: B1 VH with K59R, T101G
VL: B1 VL
B3: 6E7 variant V10 (antibody, V domains shown)
VH: B1 VH with K59R
VL: B1 VL with A50S
B4: 6E7 variant V11 (antibody, V domains shown)
VH: B1 VH with K59R
VL: B1 VL with D92A
B5: 6E7 variant V18 (antibody, V domains shown)
VH: B1 VH with W33H, K59R
VL: B1 VL
B6: 6E7 variant V19 (antibody, V domains shown)
VH: B1 VH with Y32S, K59R
VL: B1 VL
B7: 6E7 variant V20 (antibody, V domains shown)
VH: B1 VH with I50R, K59R
VL: B1 VL
B8: 6E7 variant V21 (antibody, V domains shown)
VH: B1 VH with K59R, Y109F
VL: B1 VL
B9: 6E7 variant V22 (antibody, V domains shown)
VH: B1 VH with K59R
VL: B1 VL with A50R
B10: 6E7 variant V23 (antibody, V domains shown)
VH: B1 VH with K59R
VL: B1 VL with R96L
B11: 6E7 variant V30 (antibody, V domains shown)
VH: B1 VH with Y27S, K59R
VL: B1 VL
B12: 6E7 variant V31 (antibody, V domains shown)
VH: B1 VH with D57E, K59R
VL: B1 VL
B13: 6E7 variant V32 (antibody, V domains shown)
VH: B1 VH with K59R, P62N
VL: B1 VL
B14: 6E7 variant V33 (antibody, V domains shown)
VH: B1 VH with K59R, Y104G
VL: B1 VL

target: T1, human TREM2 (human) (UniProt Q9NZC2); assay: 1st screen, 110 nM Ab
T1 sequence (looked up): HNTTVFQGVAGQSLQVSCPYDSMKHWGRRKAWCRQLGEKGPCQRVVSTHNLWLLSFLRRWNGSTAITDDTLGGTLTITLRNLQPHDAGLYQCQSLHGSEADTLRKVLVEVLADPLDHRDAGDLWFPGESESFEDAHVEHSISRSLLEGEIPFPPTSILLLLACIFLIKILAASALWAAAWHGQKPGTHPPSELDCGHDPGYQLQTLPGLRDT

Row | Binder | Binding Signal (fold over 6E7 parental antibody)
1 | B1 | 0.28 fold
2 | B2 | 0.67 fold
3 | B3 | 0.76 fold
4 | B4 | 0.79 fold
5 | B5 | 0.17 fold
6 | B6 | 0.59 fold
7 | B7 | 0.18 fold
8 | B8 | 0.76 fold
9 | B9 | 0.3 fold
10 | B10 | 0.4 fold
11 | B11 | 0.79 fold
12 | B12 | 0.61 fold
13 | B13 | 0.82 fold
14 | B14 | 0.23 fold

target: T1, human TREM2 (human); assay: 2nd screen, 100 nM Ab

Row | Binder | Binding Signal (fold over 6E7 parental antibody)
15 | B1 | 0.77 fold
16 | B2 | 0.54 fold
17 | B3 | 0.7 fold
18 | B4 | 0.42 fold
19 | B5 | 0.42 fold
20 | B6 | 0.48 fold
21 | B7 | 0.52 fold
22 | B8 | 0.68 fold
23 | B9 | 0.71 fold
24 | B10 | 0.4 fold
25 | B11 | 0.72 fold
26 | B12 | 0.73 fold
27 | B13 | 0.89 fold
28 | B14 | 0.34 fold

Reference: US20260250381A1
